# Reference: article PMC3720919, “Mcm10 Self-Association Is Mediated by an N-Terminal Coiled-Coil Domain” (PLoS ONE, 2013)
# “And” between values parts separate entries of the source, which are not always exact repeats. Equal entries are not always repeated.
# Assays:
# [1] = target: the molecule itself; test: crystal structure; MBP-CC fusions at 50 mg/mL, sitting drop vapor diffusion, 16°C, sodium acetate pH 4.8; molecular replacement with MBPX(E)
# [2] = target: the molecule itself; test: SEC-MALS; Superose6 10/300 GL, 0.4 ml/min, 25 mM Tris pH 7.5, 150 mM NaCl, 2% glycerol, 2 mM BME
# [3] = target: the molecule itself; test: native gel or EMSA; native gel electrophoresis (4-16% Bis-Tris) of the NTD
# [4] = target: the molecule itself; test: AUC; sedimentation velocity, 42,000 rpm, 20°C; 0.6 mg/ml in PBS pH 7.4, 150 mM NaCl, 0.3 mM TCEP
# [5] = target: the molecule itself; test: AUC; sedimentation velocity, 42,000 rpm, 20°C; 0.6 mg/ml in 25 mM sodium acetate pH 4.7, 150 mM NaCl, 0.3 mM TCEP
protein,measurement,setting,value
"VCQEKSKDELEDELRKMQAQMKKLQEQLQK (domain or fragment, Xenopus laevis, UniProt Q5EAW4 95-124, looked up, Mcm10, Xenopus laevis, coiled-coil region, residues 95-124 (95-122 in the final model); Trimer in the crystal; dimer in sedimentation velocity; MBPX(E) as in PDB 3H4Z; also called xMcm10-CC^95–124; wild-type CC; source: E. coli C41, purified (amylose resin, Superdex S200); not shown: MBP (mutant form MBPX(E) residues 1-367; uncleavable linker AAAMG), N-terminal, kept) [MBP-CC 95-124 (xMcm10 residues 95-124 fused to maltose binding protein)]",stoichiometry N,[1],3
"Full-length Xenopus laevis Mcm10 (natural protein, UniProt Q5EAW4 1-860, looked up, Minichromosome maintenance protein 10 (Mcm10), Xenopus laevis, full length (860 residues by the construct 230-860; calculated mass 95.4 kDa); also called xMcm10; full-length Mcm10; source: Hi-5 insect cells (baculovirus, Bac-to-Bac), purified (Ni-NTA, Source Q, Superose6 gel filtration)) MEVDADLELLTSLLEENEAAERNGVVSHEASSELDEFDELFDGDEDGSYHGSDNGTEEQTIGGVEEDFTTLFGDIDDIKEEEAAASDTKKQSSSVCQEKSKDELEDELRKMQAQMKKLQEQLQKTALAKTSSPGNPKKSPENKMVQSGKTSRTSPLIERKKTDSNTVAPQLTSPTVPKAKLPDAPKRKQNLSDKSPVQKKMASFLSPPEKSSARPGQSTATQPITNTLKSPVGQQYHVEKFSGLRIRKPRVSSSEMERKMNGRKLIRLAQLQNKIATEKLEEEDWVTFGVIVKKITPQSSNNGKTFSIWRLNDLKDLDKYISLFLFGDVHKEHWKTDQGTVIGLLNANPMKPKEGTDEVCLSVDNPQKVLLMGDAVDLGTCKARKKNGDPCTQMVNLNDCEYCQYHVQAQYKKVSSKRADLQSSYSGHVPKKMARGANGLRERLCQGGFHYGGVSSMAYAATLGSTTAPKKTVQSTLSNMVVRGAEAIALEARQKIAAAKNVVQTDEFKELMTLPTPGALNLKKHLSGVSPQANCGKEGQPIQSISASTLLKQQKQQMLNARKKRAEESQKRFLESTEKSEKSSTLTSSACSVFQSPKQGAEFPNAQKMATPKLGRGFAEGDDVLFFDISPPPAPKLSTSAEAKKLLAIQKLQAKGQTLAKTDPNSIKRKRGSSSEELVAQRVASHASTSPKSPDENEPAIKKHRDQLAYLESEEFQKILNAKSKHTGILKEAEVEIQEHYFDPLVKKEQLEEKMQSIREQSCRVVTCKTCKYTHFKPKETCVSENHDFHWHNGVKRFFKCPCGNRTISLDRLPKKHCSTCGLFKWERVGMLKEKTGPKLGGETLLPRGEEHGKFLNSLK",stoichiometry N,[2],~2 Mcm10 subunits and ~3.4 Mcm10 subunits
"Mcm10-NTD (aa 1-145) L104A/L108A (2A mutant) (domain or fragment, Xenopus laevis, UniProt Q5EAW4 1-145, looked up, Mcm10, Xenopus laevis, residues 1-145 with L104A/L108A; also called NTD 2A) MEVDADLELLTSLLEENEAAERNGVVSHEASSELDEFDELFDGDEDGSYHGSDNGTEEQTIGGVEEDFTTLFGDIDDIKEEEAAASDTKKQSSSVCQEKSKDEAEDEARKMQAQMKKLQEQLQKTALAKTSSPGNPKKSPENKMV",binding result,[3],binds
"VCQEKSKDELEDELRKMQAQMKKLQEQLQKTALAKTSS (domain or fragment, Xenopus laevis, UniProt Q5EAW4 95-132, looked up, Mcm10, Xenopus laevis, coiled-coil region, residues 95-132; MBPX(E) as in PDB 3H4Z (search model); the linker in the 95-124 model is AAAMG; Calculated mass 45.1 kDa; source: E. coli C41, purified (amylose resin, Superdex S200); not shown: MBP (mutant form MBPX(E) from pMALX(E); short uncleavable linker), N-terminal, kept) [MBP-CC 95-132 (xMcm10 residues 95-132 fused to maltose binding protein)]",stoichiometry N,[4],1.7 MBP-CC subunits
same,stoichiometry N,[5],3 and 2
